The record followed here is US20230243070A1 (Molecular Partners, published 2023).

By Kd is commonly meant the free concentration of one partner at which half of the binding sites on the other are occupied at equilibrium, for simple one-to-one binding.

Assay [1] concerns the target T1, EBNApMHC (HLA-A*0201:EBNA-1), biotinylated recombinant complex (human; Epstein Barr virus). Briefly: ribosome display selection, crude extract HTRF. In general terms: In TR-FRET formats the signal depends on donor and acceptor labels being close together.
The target of assay [2] is T2, NYESOpMHC (HLA-A*0201:NYESO1-9V), biotinylated recombinant complex (human).
T2 construct: also called NY-ESO-1 peptide-MHC complex
The experiment in a line: SPR (ProteOn), biotinylated pMHC on NLC chip, PBS with Tween.

The target in assay [3] is NYESOAApMHC (HLA-A*0201:NYESO1-9VAA), biotinylated recombinant complex (human). Briefly: SPR (ProteOn), biotinylated pMHC on NLC chip.
The target in assay [4] is T1, EBNApMHC (HLA-A*0201:EBNA-1), …. Briefly: SPR (ProteOn), biotinylated pMHC on NLC chip.

B1: SEQ ID NO 105 (designed binder)
chain: GSDLGKKLLQAARAGQLDEVRELLKAGADVNAKDQEGRTPLHIAAAHGHLEIVEVLLKAGADVNAKDAYGYTPLHLAAFIGHLEIVEVLLKAGAEVNAKDKYGETPLHIAALTGHLEIVEVLLKAGADVNAQDKSGKTPADLAARAGHQDIAEVLQKAA
Regarding B1, the binding result in assay [1] was “binds”.

B2: SEQ ID NO 101 (designed binder)
chain: GSDLGEKLLAAALVGQDDEVRILLAVGADVNAKDVAGRTPLHRAALAGHLEIVEVLLKAGADVNAKDQSGFTPLHLAAVDGHLEIVEVLLKAGADVNAQDEIGATPADLAARIGHEDIAEVLQKAA
In the case of B2, the binding result in assay [1] is “binds”.

B3: SEQ ID NO 94 (designed binder)
chain: GSDLGQKLLEAARKGQDDEVRELLKAGADVNAKDKAGWTPLHLAAYFGHLEIVEVLLKAGADVNAKDVIGWTPLHLAAWQGHLEIVEVLLKAGADVNAQDLKGQTPADLAAQEGNEDIAEVLQKAA
On to B3, for which the binding result in assay [1] is recorded as “binds”.

B4: SEQ ID NO 100 (designed binder)
chain: GSDLGSKLLQAAAVGQDDEVRILLAAGADVNAKDDFGETPLHLAAWHGHLEIVEVLLKAGADVNAKDEQGFTPLHWAALTGHLEIVEVLLKAGADVNAQDKQGITPADLAANAGHEDIAEVLQKAA
For the molecule B4, the binding result in assay [1] is reported as “binds”.

B5: SEQ ID NO 95 (designed binder)
chain: GSDLGQKLLRAAQAGQDDEVRELLKAGADVNAKDEVGWTPLHLAAAWGHLEIVEVLLKAGADVNAKDHFGITPLHVAAELGHLEIVEVLLKAGADVNAQDLAGRAPADLAALEGHEDIAEVLQKAA
As to B5, the binding result in assay [1] is on record as “binds”.

B6: SEQ ID NO 102 (designed binder)
chain: GSDLGHKLLIAAYLGQDDEVRILLAAGADVNAKDDFGITPLHVAAQVGHLEIVEVLLKAGADVNAKDKSGLTPLHLAAYYGHLEIVEDLLKAGADVNAQDYSGETPADLAASLGHEDIAEVLQKAA
Consider B6, for which the binding result in assay [1] is listed as “binds”.

B7: DARPin® protein #23 (designed binder)
chain: MRGSHHHHHHGSDLGIKLLYAANSGQDDEVRILLAAGADVNAKDEYGDTPLHKAAEYGHLEIVEVLLKAGADVNAKDVYGITPLHLAAIFGHLEIVEVLLKAGADVNAQDKKGHTPADLAAFVGHEDIAEVLQKAA
As to B7, the Kd in assay [2] was 0.0939 nM. In addition, the binding result is listed as “no binding” in assay [3] and “no binding (tested: 3.7 nM to 300 nM, or 250 nM single trace)” in assay [4].

B8: SEQ ID NO 110 (designed binder)
chain: GSDLGKKLLQAARAGQLDEVRELLKAGADVNAKDAAGWTPLHLAAAEGHLEIVEVLLKAGADVNAKDVVGQTPLHVAAVIGHLEIVEVLLKAGADVNAKDSAGYTPLHLAAREGHLEIVEVLLKAGADVNAQDKSGKTPADLAARAGHQDIAEVLQKAA
Turning to B8, in assay [1], the binding result is “binds”.

B9: SEQ ID NO 96 (designed binder)
chain: GSDLGKKLLQAARAGQLDEVRELLKAGADVNAKDLTGITPLHIAAREGHLEIVEVLLKAGADVNAKDAWGFTPLHVAAWTGHLEIVEVLLKAGADVNAKDLLGETPLHLAAEAGHLEIVEVLLKAGADVNAQDKSGKTPADLAARAGHQDIAEVLQKAA
In the case of B9, the binding result in assay [1] is on record as “binds”.

B10: SEQ ID NO 107 (designed binder)
chain: GSDLGKKLLQAARAGQLDEVRELLKAGADVNAKDLTGITPLHVAARSGHPEIVEVLLKAGADVNAKDAWGFTPLHVAAYKGHLEIVEVLLKAGADVNAKDQLGETPLHLAAAEGHLEIVEVLLKAGADVNAQDKSGKTPADLAARAGHQDIAEVLQKAA
As for B10, the binding result in assay [1] was “binds”.

B11: SEQ ID NO 109 (designed binder)
chain: GSDLGKKLLQAARAGQLDEVRELLKAGADVNAKDLSGVTPLHIAARSGHLEIVEVLLKAGADVNAKDAWGYTPLHVAAEHGHLEIVEVLLKAGADVNAKDHLGSTPLHIAASHGHLEIVEVLLKAGADVNAQDKSGKTPADLAARAGHQDIAEVLQKAA
Regarding B11, the binding result in assay [1] was “binds”.

B12: SEQ ID NO 106 (designed binder)
chain: GSDLGKKLLQAARAGQLDEVRELLKAGADVNAKDLAGVTPLHVAARAGHLEIVEVLLKAGADVNAKDAWGFTPLHIAAYQGHLEIVEVLLKAGADVNAKDLLGSTPLHVAAETGHLEIVEVLLKAGADVNAQDKSGKTPADLAARAGHLDIAEVLQKAA
As to B12, in assay [1], the binding result is given as “binds”.

B13: SEQ ID NO 108 (designed binder)
chain: GSDLGKKLLQAARAGQLDEVRELLKAGADVNAKDQTGWTPLHIAAHTGHLEIVEVLLKAGADVNAKDAVGFTPLHVAAWSGHLEIVEVLLKDGADVNAKDTSGATPLHLAAEWGHLEIVEVLLKAGADVNAQDKSGKTPADLAARAGHQDIAEVLQKAA
B13: the binding result in assay [1] is listed as “binds”.

B14: SEQ ID NO 104 (designed binder)
chain: GSDLGQKLLQAAQLGQDDEVRELLKAGADVNAKDTFGQTPLHPAAWSGHLEIVEVLLKAGADVNAKDKWGVTPLHLAAVSGHLEIVEVLLKAGADVNAQDLEGRTPADLAAKQGHEDIAEVLQKAA
In the case of B14, the binding result in assay [1] is on record as “binds”.

B15: SEQ ID NO 93 (designed binder)
chain: GSDLGTKLLFAATLGQDDEVRILLAAGADVNAKDTIGRTPLHVAAHYGHLEIVEVLLKAGADVNAKDIYGFTPLHLAAYFGHLEIVEVLLKAGADVNAQDKTGKTPADLAAVIGHEDIAEVLQKAA
Turning to B15, the binding result in assay [1] was “binds”.

B16: SEQ ID NO 98 (designed binder)
chain: GSDLGDKLLFAAELGQDDEVRILLAAGADVNAKDSFGQTPLHRVAANHGHLEIVEVLLKAGADVNAKDSSGHTPLHVAALTGHLEIVEVLLKAGADVNAQDESGFTPADLAADVGHEDIAEVLQKAA
On to B16, for which the binding result in assay [1] is recorded as “binds”.

B17: SEQ ID NO 103 (designed binder)
chain: GSDLGNKLLWAAYQGQDDEVRILLAAGADVNAKDYLGWTPLHIAATSGHLEIVEVLLKAGADVNAKDWYGYTPLHLAAEWGHLEIVEVLLKAGADVNAQDKSGKTPADLAADSGHEDIAEVLQKAA
On to B17, for which the binding result in assay [1] is “binds”.

B18: DARPin® protein #24 (designed binder)
chain: MRGSHHHHHHGSDLGEKLLYAAFYGQDDEVRILLTAGADVNAKDKYGLTPLHRAATHGHLEIVEVLLKAGADVNAKDEWGTTPLHIAAIFGHLEIVEVLLKAGADVNAQDEQGNTPADLAAVIGHEDIAEVLQKAA
On to B18, for which, in assay [2], the Kd was found to be 0.939 nM. Besides, the binding result in assay [3] is “no binding”; in assay [4] it was “no binding (tested: 3.7 nM to 300 nM, or 250 nM single trace)”.

B19: SEQ ID NO 99 (designed binder)
chain: GSDLGAKLLFAAILGQDDEVRILLAAGADVNAKDETGHTPLHHAAHYGHLEIVEVLLKAGADVNAKDQYGFTPLHLAAYYGHLEIVEVLLKAGADVNAQDDDGITPADLAAAHGHEDIAEVLQKAA
Regarding B19, the binding result in assay [1] is “binds”.

B20: SEQ ID NO 97 (designed binder)
chain: GSDLGKKLLQAARAGQLDEVRELLKADADVNAKDTWGYTPLHLAAFHGHLEIVEVLLKAGADVNAKDELGKTPLHLAAYVGPLEIVEVLLKAGADVNAKDQHGYTPLHIAAAYGHLEIVEVLLKAGADVNAQDKSGKTPADLAARAGHQDIAEVLQKAA
With B20, the binding result in assay [1] is on record as “binds”.

B21: DARPin® protein #29 (designed binder)
chain: MRGSHHHHHHGSDLGKKLLQAARAGQLDEVRELLKAGADVNAKDRAGSTPLHLAAFRGHLEIVEVLLKAGADVNAKDAAGYTPLHLAALYGHLEIVEVLLKAGADVNAKDHAGSTPLHLAALAGHLEIVEVLLKAGADVNAQDKSGKTPADLAARAGHQDIAEVLQKAA
As for B21, in assay [2], the Kd stood at 0.635 nM. The binding result in assay [3] is listed as “no binding”; in assay [4] it was “no binding (tested: 3.7 nM to 300 nM, or 250 nM single trace)”.

B22: DARPin® protein #33 (designed binder)
chain: MRGSHHHHHHGSDLGKKLLQAARAGQLDEVRELLKAGADVNAKDAIGQTPLHLAAFRGHLEIVEVLLKAGADVNAKDVAGWTPLHIAAAYGHLEIVEVLLKAGADVNAKDAYGQTPLHLAAFQGHLEIVEVLLKAGADVNAQDKSGKTPADLAARAGHQDIAEVLQKAA
Regarding B22, the Kd in assay [2] worked out at 0.108 nM. Besides, the binding result in assay [3] is listed as “no binding”; in assay [4], “no binding (tested: 3.7 nM to 300 nM, or 250 nM single trace)”.

B23: DARPin® protein #31 (designed binder)
chain: MRGSHHHHHHGSDLGKKLLQAARAGQLDEVRELLKAGADVNAKDATGQTPLHVAAFRGHLEIVEVLLKAGADVNAKDKAGYTPLHIAAYAGHLEIVEVLLKAGADVNAKDHAGWTPLHLAAILGHLEIVEVLLKAGADVNAQDKSGKTPADLAARAGHQDIAEVLQKAA
With B23, in assay [2], the Kd stood at 1.32 nM. In addition, the binding result is recorded as “no binding” in assay [3] and “no binding (tested: 3.7 nM to 300 nM, or 250 nM single trace)” in assay [4].

B24: DARPin® protein #32 (designed binder)
chain: MRGSHHHHHHGSDLGKKLLQAARAGQLDEVRELLKAGADVNAKDYFGSTPLHLAQLGHLEIVEVLLKAGADVNAKDYQGHTPLHVDAFHGHLEIVEVLLKAGADVNAKDQWGVTPLHLAAEWGHLEIVEVLLKAGADVNAQDKSGKTPADLAARAGHQDIAEVLQKAA
As for B24, the Kd in assay [2] was determined as 1.63 nM. For the same molecule, the binding result in assay [3] is given as “no binding”; in assay [4], “no binding (tested: 3.7 nM to 300 nM, or 250 nM single trace)”.

B25: DARPin® protein #30 (designed binder)
chain: MRGSHHHHHHGSDLGKKLLQAARAGQLDEVRELLKAGADVNAKDRFGIPLHIAASQGHLEIVEVLLKAGADVNAKDHWGETPLHLAAVFGHLEIVEVLLKAGADVNAKDHTGQTPLHLAAYLGHLEIVEVLLKAGADVNAQDKSGKTPADLAARAGHQDIAEVLQKAA
On to B25, for which the Kd in assay [2] was 2.33 nM. The binding result is “no binding” in assay [3] and “no binding (tested: 3.7 nM to 300 nM, or 250 nM single trace)” in assay [4].
